Test results: publication PMC11162806 (Nucleic Acids Research, 2024)

Target: T1, TwinStrep-tagged UPF1 CH domain (residues 110-282) (human, UniProt Q92900 110-282)
T1 sequence (looked up): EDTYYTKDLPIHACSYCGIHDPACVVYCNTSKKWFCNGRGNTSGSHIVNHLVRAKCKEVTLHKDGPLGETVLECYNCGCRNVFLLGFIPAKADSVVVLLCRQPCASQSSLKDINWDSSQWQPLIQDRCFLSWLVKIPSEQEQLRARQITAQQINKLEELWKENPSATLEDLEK
Experiment: ITC

Kd [nM]	Binder
4280 ± 250	EKQESKNPKQELRGRGRGILILPAHTTLSVNSAGSPESAPL (domain or fragment, human, UniProt Q86US8 390-430, looked up) [MBP-tagged SMG6 residues 390-430 (SMG6 CH-binding domain)]
1460 ± 250	MBP-tagged UPF2 residues 1095-1250 (UPF2 CH-binding domain) (domain or fragment, human, UniProt Q9HAU5 1095-1250, looked up) VMIKGGGLKHVPCVEDEDFIQALDKMMLENLQQRSGESVKVHQLDVAIPLHLKSQLRKGPPLGGGEGEAESADTMPFVMLTRKGNKQQFKILNVPMSSQLAANHWNQQQAEQEERMRMKKLTLDINERQEQEDYQEMLQSLAQRPAPANTNRERRP
